In patent US20210347865A1 (STATEN BIOTECHNOLOGY B V, published 2021):
Residue numbers refer to the chain shown, from its start. One block for each binder: values may come before it.

Tests used:
[1] = biological target: T1, native human ApoC3 (human, UniProt P02656 21-99, biotinylated in the captured-antigen assays (Tables 6 and 8); sites not stated); assay: SPR, antigen immobilized on CM5 chip, IgG as analyte, pH 7.4; footnote: n/a: not applicable; below the limits of detection kd: 1E-06 1/s
T1 construct: also called nhuApoC3; native huApoC3

[2] = biological target: T1, native human ApoC3; assay: SPR, IgG captured via anti-human Fc, ApoC3 analyte 400 nM
Description: (§1) Immobilization was performed in accordance with the method provided by Biacore in the NHS/EDC kit (Biacore AB). Briefly, after activation of the chip, a solution of 30 μg/ml anti-human Fcγ antibody in 10 mM acetate buffer with pH 5.0 was injected until the surface density reached approximately 10,000 RU. […] Following antibody capture, 100 μl of HBS-EP buffer was injected and passed through the flow cells at 30 μl/min. To bind target, 60 μl of 400 nM, 200 nM, 100 nM, or 50 nM ApoC3 protein in HBS-EP buffer was injected. An off-rate wash was performed by injection of HBS-EP buffer at 30 μl/min for 5 min. After dissociation, the flow cell surfaces were regenerated by injecting 20 μl of 10 mM glycine at pH 1.5.
(§2) The resulting sensorgrams were analysed with BIAevaluation 4.1 software using the Langmuir 1:1 binding model to derive binding kinetics. Data was zero adjusted and the reference cell sensorgrams were subtracted. A no-analyte blank assay was used for double referencing the sensorgrams corresponding to nhuApoC3 and rcyApoC3 injections. The dissociation and association phase sensorgrams were fitted separately for the 4 different concentration curves. Sensorgrams were excluded from the fitting if maximum RU values were below the limit of detection (i.e., <5 RU). SPR signals were too low to calculate kinetic parameters for […].

[3] = biological target: T1, native human ApoC3; assay: SPR, IgG captured via anti-human Fc, ApoC3 analyte 100 nM
Description: as §1, §2

[4] = biological target: T1, native human ApoC3; assay: SPR, biotinylated antigen captured on streptavidin chip, IgG as analyte, pH 7.4
[5] = biological target: T1, native human ApoC3; assay: SPR, IgG captured via anti-human Fc, ApoC3 analyte 200 nM
Description: as §1, §2

[6] = biological target: T1, native human ApoC3; assay: SPR, IgG captured via anti-human Fc, ApoC3 analyte 50 nM
Description: as §1, §2

[7] = biological target: T1, native human ApoC3; assay: SPR, Table 9 ('29A6-Nhance as the captured antigen'), analyte 0.78-25 nM, pH 7.4
Description: (§3) For the captured antigen approach, biotinylated native human ApoC3 was captured on a streptavidin coated chip (GE Healthcare #BR100032) at pH 7.4. In accordance with the methods provided by Biacore, 20 μl of 10 μg/ml biotinylated human ApoC3 was injected until the surface density reached approximately 500 RU. SPR methods and data analysis were followed as described in Example 2.1. SPR was also performed using these methods with the 29A06-Nhance antibody as the captured antigen. The 29A06-Nhance antibody comprises the heavy chain amino acid sequence set forth in SEQ ID NO: 38 and the light chain amino acid sequence set forth in SEQ ID NO: 50.
(§4) Similarly to the immobilized antigen approach, most of the clones had high affinity towards the human target and low off-rate values.

[8] = biological target: T2, recombinant cynomolgus ApoC3 (cynomolgus monkey, UniProt P18659 21-99, biotinylated in the captured-antigen assays (Tables 6 and 8); sites not stated); assay: as above
T2 construct: No cleavage site is stated, so none is applied; also called rcyApoC3; bio-rcyApoC3
Description: as §3, §4

[9] = biological target: T2, recombinant cynomolgus ApoC3; assay: SPR, antigen immobilized on CM5 chip, IgG as analyte, pH 7.4; antigen immobilized on chip, IgG as analyte (50-0.8 nM)
[10] = biological target: T2, recombinant cynomolgus ApoC3; assay: SPR, biotinylated antigen captured on streptavidin chip, IgG as analyte, pH 7.4
[11] = biological target: T1, native human ApoC3; assay: SPR, antigen immobilized on CM5 chip, IgG as analyte, pH 7.4
[12] = biological target: T1, native human ApoC3; assay: SPR, biotinylated antigen captured on streptavidin chip, IgG as analyte, pH 7.4; footnote: n/a: not applicable; below the limits of detection kd: 1E-06 1/s
[13] = biological target: T2, recombinant cynomolgus ApoC3; assay: SPR, biotinylated antigen captured on streptavidin chip, IgG as analyte, pH 7.4; biotinylated antigen captured on streptavidin chip, IgG as analyte
[14] = biological target: T2, recombinant cynomolgus ApoC3; assay: SPR, IgG captured via anti-human Fc, ApoC3 analyte 400 nM
Description: as §1, §2

[15] = biological target: T2, recombinant cynomolgus ApoC3; assay: SPR, IgG captured via anti-human Fc, ApoC3 analyte 100 nM
Description: as §1, §2

[16] = biological target: T2, recombinant cynomolgus ApoC3; assay: SPR, IgG captured via anti-human Fc, ApoC3 analyte 200 nM
Description: as §1, §2

[17] = biological target: T2, recombinant cynomolgus ApoC3; assay: SPR, antigen immobilized on CM5 chip, IgG as analyte, pH 7.4
[18] = biological target: T2, recombinant cynomolgus ApoC3; assay: SPR, IgG captured via anti-human Fc, ApoC3 analyte 50 nM
Description: as §1, §2

[19] = biological target: T2, recombinant cynomolgus ApoC3; assay: SPR, antigen immobilized on CM5 chip, IgG as analyte, pH 7.4; antigen immobilized on chip, IgG as analyte (12.5-0.8 nM)

T1 sequence (P02656 21-99): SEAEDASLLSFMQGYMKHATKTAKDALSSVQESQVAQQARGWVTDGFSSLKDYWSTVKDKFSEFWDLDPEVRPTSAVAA
T2 sequence (P18659 21-99 limits assumed): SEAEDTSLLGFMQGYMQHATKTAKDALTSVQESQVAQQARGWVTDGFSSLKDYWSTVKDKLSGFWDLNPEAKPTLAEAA

koff [1]: < 1e-06 s⁻¹
Kd [2]: 0.741 nM
koff [2]: 0.000122 s⁻¹
kon [2]: 165000 M⁻¹ s⁻¹
Kd [3]: 0.734 nM
koff [3]: 0.000121 s⁻¹
kon [3]: 165000 M⁻¹ s⁻¹
Kd [4]: 0.05 nM
koff [4]: 1.8e-05 s⁻¹
kon [4]: 350000 M⁻¹ s⁻¹
Kd [5]: 0.77 nM
koff [5]: 0.000128 s⁻¹
kon [5]: 166000 M⁻¹ s⁻¹
Kd [6]: 0.695 nM
koff [6]: 0.000114 s⁻¹
kon [6]: 164000 M⁻¹ s⁻¹
B1: 5E5 WT IgG (antibody, V domains shown)
VH: QLQLVESGGGLVQPGGSLRLSCAASGFTFGTYSMRWVRQVPRKALEWVSSISTDGGGTAYRDSVKGRFTISRDNAKNTLYLQMNNLKPEDTAIYYCVIAGYSDWGQGTQVTVSS
VL: ATMLTQSPGSLSVVPGESASISCKTSQGLVHSDGKTYFYWFLQKPGQSPQQLIYQVSNRASGVPDRFTGSGSGTDFTLKISGVKAEDAGVYYCAQGTYYPHTFGSGTRLEIK
notes: Full-length IgG captured by an anti-human Fc antibody

Kd [7]: 0.023 nM
kon [7]: 770000 M⁻¹ s⁻¹
Kd [8]: 0.675 nM
B2: 29A06-Nhance antibody (antibody, human IgG1, kappa, V domains shown)
VH: B1 VH
VL: DVVLTQTPGSLSVVPGESASISCKASQNLVHSNGKTYLYWLLQKPGQSPQRLIYQVSNRGSEVPDRFTGSGSGTDFTLKISGVKAEDAGVYYCAQGTYWPKTFGQGTKLEIKR
notes: IgG1 heavy chain with the Nhance Fc variant, and a kappa light chain; This is probably a print error; also called mAb 29A6-Nhance; 29A6-Nhance

Kd [2]: 1.8 nM
koff [2]: 0.000219 s⁻¹
kon [2]: 122000 M⁻¹ s⁻¹
Kd [9]: 2.79 nM
koff [9]: 0.000774 s⁻¹
kon [9]: 280000 M⁻¹ s⁻¹
Kd [3]: 1.63 nM
koff [3]: 0.000219 s⁻¹
kon [3]: 134000 M⁻¹ s⁻¹
Kd [10]: 1.75 nM
Kd [5]: 1.63 nM
koff [5]: 0.000217 s⁻¹
kon [5]: 133000 M⁻¹ s⁻¹
Kd [11]: 0.04 nM
koff [11]: 2.4e-05 s⁻¹
kon [11]: 620000 M⁻¹ s⁻¹
koff [12]: < 1e-06 s⁻¹
Kd [6]: 1.71 nM
koff [6]: 0.000246 s⁻¹
kon [6]: 144000 M⁻¹ s⁻¹
koff [13]: 0.000388 s⁻¹
kon [13]: 220000 M⁻¹ s⁻¹
B3: 29F10 IgG (antibody, V domains shown)
VH: B1 VH
VL: DVVLTQTPGSLSVVPGEPASVSCKASQSLVHPDGKTYLYWLLQKPGQSPQRLIYQVSNRGSGVPDRFTGSGSGTDFTLEISGVKAEDAGVYYCAQGTYWPKTFGQGTKLEIK

koff [1]: < 1e-06 s⁻¹
Kd [2]: 0.401 nM
koff [2]: 8.63e-05 s⁻¹
kon [2]: 215000 M⁻¹ s⁻¹
Kd [14]: 367 nM
koff [14]: 0.0145 s⁻¹
kon [14]: 39600 M⁻¹ s⁻¹
Kd [3]: 0.336 nM
koff [3]: 8e-05 s⁻¹
kon [3]: 238000 M⁻¹ s⁻¹
Kd [15]: 385 nM
koff [15]: 0.014 s⁻¹
kon [15]: 36300 M⁻¹ s⁻¹
Kd [10]: 0.33 nM
koff [10]: 0.000104 s⁻¹
kon [10]: 320000 M⁻¹ s⁻¹
Kd [5]: 0.35 nM
koff [5]: 8.44e-05 s⁻¹
kon [5]: 241000 M⁻¹ s⁻¹
Kd [16]: 297 nM
koff [16]: 0.0137 s⁻¹
kon [16]: 46100 M⁻¹ s⁻¹
Kd [17]: 0.18 nM
koff [17]: 6.7e-05 s⁻¹
kon [17]: 380000 M⁻¹ s⁻¹
koff [12]: < 1e-06 s⁻¹
Kd [18]: 190 nM
koff [18]: 0.0127 s⁻¹
kon [18]: 66800 M⁻¹ s⁻¹
B4: 29B03 IgG (antibody, V domains shown)
VH: B1 VH
VL: B3 VL with P18S, V21I, S26G, S28N, G60D, E79K, A85V

Kd [2]: 3.04 nM
koff [2]: 0.000752 s⁻¹
kon [2]: 247000 M⁻¹ s⁻¹
Kd [3]: 2.52 nM
koff [3]: 0.000758 s⁻¹
kon [3]: 301000 M⁻¹ s⁻¹
Kd [4]: 0.02 nM
koff [4]: 3.3e-05 s⁻¹
kon [4]: 1.31e+06 M⁻¹ s⁻¹
Kd [10]: 0.37 nM
Kd [5]: 2.57 nM
koff [5]: 0.000733 s⁻¹
kon [5]: 286000 M⁻¹ s⁻¹
Kd [11]: 0.01 nM
koff [11]: 1.6e-05 s⁻¹
kon [11]: 1.32e+06 M⁻¹ s⁻¹
Kd [19]: 0.5 nM
koff [19]: 0.000552 s⁻¹
kon [19]: 1.11e+06 M⁻¹ s⁻¹
Kd [6]: 2.31 nM
koff [6]: 0.000718 s⁻¹
kon [6]: 311000 M⁻¹ s⁻¹
koff [13]: 0.000275 s⁻¹
kon [13]: 750000 M⁻¹ s⁻¹
B5: 29G02 IgG (antibody, V domains shown)
VH: B1 VH
VL: DVVLTQTPGSLSVVPGESASISCKATQSLVHIDGKTYLYWLLQKPGQSPQRLIYQVSTRDSGVPDRFTGAGSGAEFTLKISGVKAEDAGVYYCAQDTYSTKTFGQGTKLEIK

Kd [2]: 5.76 nM
koff [2]: 0.00119 s⁻¹
kon [2]: 207000 M⁻¹ s⁻¹
Kd [3]: 4.85 nM
koff [3]: 0.00117 s⁻¹
kon [3]: 241000 M⁻¹ s⁻¹
Kd [4]: 0.05 nM
koff [4]: 7.3e-05 s⁻¹
kon [4]: 1.38e+06 M⁻¹ s⁻¹
Kd [10]: 0.25 nM
Kd [5]: 5.21 nM
koff [5]: 0.00122 s⁻¹
kon [5]: 234000 M⁻¹ s⁻¹
Kd [11]: 0.04 nM
koff [11]: 6.3e-05 s⁻¹
kon [11]: 1.44e+06 M⁻¹ s⁻¹
Kd [19]: 0.38 nM
koff [19]: 0.000531 s⁻¹
kon [19]: 1.4e+06 M⁻¹ s⁻¹
Kd [6]: 4.79 nM
koff [6]: 0.00115 s⁻¹
kon [6]: 240000 M⁻¹ s⁻¹
koff [13]: 0.000228 s⁻¹
kon [13]: 920000 M⁻¹ s⁻¹
B6: 29G11 IgG (antibody, V domains shown)
VH: B1 VH
VL: B5 VL with E17G, T26S, H31Y, I32S, L42R, T58N, D60P, A70S, A74T, E75D
